# T1: mMobA minimal relaxase domain (Escherichia coli, UniProt P07112 SEQ:1-186)
# T1 chain: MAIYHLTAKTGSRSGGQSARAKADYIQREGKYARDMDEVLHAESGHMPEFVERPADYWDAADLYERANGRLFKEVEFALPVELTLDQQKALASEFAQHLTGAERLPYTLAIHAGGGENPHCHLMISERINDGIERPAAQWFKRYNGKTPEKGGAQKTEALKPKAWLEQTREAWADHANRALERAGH
# T2: RepB HUH domain (Streptococcus agalactiae, UniProt P13921 SEQ:1-132)
# T2 chain: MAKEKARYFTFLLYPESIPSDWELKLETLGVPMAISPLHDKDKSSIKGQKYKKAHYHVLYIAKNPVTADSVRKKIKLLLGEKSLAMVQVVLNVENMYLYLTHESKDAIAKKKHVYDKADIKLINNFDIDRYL
# T3: GeneA* HUH (Y131H) (PhiX174, UniProt P03631 SEQ:1-340)
# T3 chain: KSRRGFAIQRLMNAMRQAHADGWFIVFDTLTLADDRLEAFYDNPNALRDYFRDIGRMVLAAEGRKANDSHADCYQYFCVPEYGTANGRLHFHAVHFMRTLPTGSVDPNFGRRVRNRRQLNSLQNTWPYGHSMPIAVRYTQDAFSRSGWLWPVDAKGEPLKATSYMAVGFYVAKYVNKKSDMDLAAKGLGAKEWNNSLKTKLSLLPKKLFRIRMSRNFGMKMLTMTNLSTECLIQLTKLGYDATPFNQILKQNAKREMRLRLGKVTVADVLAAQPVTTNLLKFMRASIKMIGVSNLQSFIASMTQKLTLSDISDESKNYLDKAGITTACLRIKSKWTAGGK
# B1: mMobA target (ssDNA)
# DNA: CCAGTTTCTCGAAGAGAAACCGGTAAATGCGCCCT
# B2: RepB target (ssDNA)
# DNA: TGCTTCCGTACTACGACCCCCCA
# B3: GeneA target (ssDNA)
# DNA: TCGACAACTTGATATTAATAACACTATAGAC
# B4: PCV2 ori target (ssDNA)
# DNA: AAGTATTACCAG
# How the values were obtained:
# [1] = biological target: T1, mMobA minimal relaxase domain; assay: covalent adduct by SDS-PAGE; 1 uM protein, 5 uM DNA, 30 min 37 C; settings: tags: N-terminal His6-SUMO; label: Cy3
# Protocol: (§1) The HUH endonuclease-based protein tags described herein allow one to orthogonally label proteins in cells.
# (§2) Unless otherwise noted, gel-shift assays were performed in HUH buffer; 50 mM Hepes pH 8, 50 mM NaCl, 1 mM MgCl₂ and 1 mM MnCl₂, incubated at 37° C. for 15 minutes unless otherwise noted, and quenched with 4× loading buffer. The reactions were analyzed by either electrophoresis on 4-20% polyacrylamide gels stained with Coomassie Blue or Bio-Rad Stain-Free gels. For comparison of covalent adduct formation of SNAP and DCV, 25 pmol of SNAP/DCV proteins were mixed with 100 pmol respective DNA-oligo in SNAP/HUH buffer. 4×SDS loading buffer was added at indicated times to quench. SNAP buffer: 50 mM Hepes pH8, 50 mM NaCl, and 5 mM β-mercaptoethanol. Specificity reactions of HUH-proteins with each target-oligo were performed in HUH buffer with 150 mM NaCl.
# RepB HUH domain = biological target: T2, RepB HUH domain; assay: as above; settings: tags: N-terminal His6-SUMO; label: FAM
# Protocol: as §1, §2
# GeneA* HUH (Y131H) [2] = biological target: T3, GeneA* HUH (Y131H); assay: covalent adduct by SDS-PAGE; settings: tags: N-terminal His6-SUMO; label: FAM
# Protocol: The reaction time is extremely fast. […] Product is observed after a reaction time of only five minutes.
# as §2
# GeneA* HUH (Y131H) [3] = biological target: T3, GeneA* HUH (Y131H); assay: no cross-reactivity in mixture; settings: tags: N-terminal His6-SUMO; label: Cy5
binder,measurement,setting,value
B1,binding result,[1],binds
B2,binding result,RepB HUH domain,binds
B3,binding result,GeneA* HUH (Y131H) [2],binds
B4,binding result,GeneA* HUH (Y131H) [3],no binding

# Reference: US20160340395, “POLYPEPTIDE TAGGING FUSIONS AND METHODS” (REGENTS OF THE UNIVERSITY OF MINNESOTA, published 2016)
